From the supplement of paper PMC9170038

Test system: MS2 coat protein
Test: apparent KD of MS2 coat protein; designed switch direction (-1 OFF switch, 1 ON switch): -1; higher = weaker reporter binding
Procedure, shortened: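 RNA switches sharing common flanks were transcribed by stalled E. coli RNA polymerase on Illumina chips. A doubling series of SNAP-549-labelled MS2 coat protein, from 0.7 or 1.5 nM to 3 µM, was applied in Tris-HCl pH 7.5 buffer with KCl, MgCl2, BSA, DTT, tRNA and Tween-20. Each step lasted 0.8–1.5 h at the bottom of the series and 10–20 min at the top. Normalised cluster fluorescence was curve-fitted, giving apparent KD as the per-design median over clusters.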

[1] = input ligand: microRNA oligo, concentration not stated
[2] = Eterna round: R95, input ligand: FMN 200 uM
[3] = Eterna round: R95, input ligand: microRNA oligo, concentration not stated
[4] = Eterna round: R95, input ligand: none

Row | Sequence | apparent KD of MS2 coat protein (input ligand: FMN 200 uM) [nM] | apparent KD of MS2 coat protein [1] [nM] | apparent KD of MS2 coat protein (input ligand: none) [nM] | apparent KD of MS2 coat protein [2] [nM] | apparent KD of MS2 coat protein [3] [nM] | apparent KD of MS2 coat protein [4] [nM]
1 | AGUCAGGCGGUAGGAUAUCCAAACCGAGUGACCCUUUCAUAACAUGAGGAUCACCCAUGUCGGUGGGAGAAGGGCCGUACGGCG [JL ViennaUCT Atra mod 2] (Eterna round: R96, puzzle: Exclusion NG 2) | 305 | 145 | 343 | – | – | –
2 | CUUUUGUGAGGAUAUUAAUAGUAAGUAAAUAAAAUUAUUACUAAGAAGGCACAUGAGGAUCACCCAUGUUCCUC [EX4 #82] (Eterna round: R97, puzzle: Exclusion 4) | 102 | – | 63.4 | – | – | –
3 | UCUCUUGGGCAAGGAUAUCCUGUGCGGUUCCGGCUCGUGUCUGUCACAUGAGGAUCACCCAUGUGGGAGAAGGUGCCUGCGGUC [Design 81] (Eterna round: R96, puzzle: Exclusion NG 2) | 13.6 | 9.94 | 15.1 | – | – | –
4 | CAUGGAACGUAGGAUAUCUCACAGCCAGGCUGCAGAGAAGGACGUACAUGAGGAUCACCCAUGUAUGAUCCAAA [Tius] (puzzle: Exclusion 6) | – | – | – | 26.9 | 15.5 | 17.5
5 | AACCUGAGGCUUUGCUUUAGGUUUACAUGAGGAUCACCCAUGUAGGAUAUGGUAGGCAUAGCUUACCAGAAGGACAUGAAAAUU [Mat - Exclusion NG 3 - Mod of JL - D29] (Eterna round: R96, puzzle: Exclusion NG 3) | 293 | 34.1 | 43.3 | – | – | –
6 | CAUGUCUGAGGAUAUCGUUAUUUGUACAUGAGGAUCACCCAUGUCCUAUUUAUUAUAUUUCGAGAAGGCAGUGUAU [JR_E5_Sub093] (puzzle: Exclusion 5) | – | – | – | – | 15.6 | –
7 | AAUAAAGGCCGAGGAUAUCGGAAAGGAAGUGUACGAGAAGGCGGCAAAAGAACAUGAGGAUCACCCAUGUGGGCCGAUCUUCCG [PowerStrip EXNG 1.2] (Eterna round: R96, puzzle: Exclusion NG 1) | 26.4 | 10 | 18 | – | – | –
8 | GUGUAGCAAGGAUAUACAUGAGGAUCACCCAUGUGAAUAAGAUAGAAUAAGAUAAAGUGUAGAAGGUGCAGUGU [Excluse me!!! 8 - Jieux - Exclusion 3] (puzzle: Exclusion 3) | – | – | – | – | 36.6 | –
9 | UAGAUGGGAGGAUAUACGUAGAUGCGGAUUCGUGUGGUGCUACAUGAGGAUCACCCAUGUAGAAGGCCCGUCUU [JL-ex2-2.25 Mayanne mod] (puzzle: Exclusion 2) | – | – | – | – | 15.6 | –
10 | AAAAAGGCAGGAUAUACAUGAGGAUCACCCAUGUGAAAAAACAAAAAAAAAAAAAAAGGUAGAAGGGCCGAAAA [Science Triplets #3] (puzzle: Exclusion 3) | – | – | – | 22.1 | 29 | 27.6
11 | UAUUAGCAAGCGAGAUCCCACAUGAGGAUCACCCAUGUGCUCGUCUUAUAAAAGACUGUGACGAAAGUCACGGUCAC [Mat - Sensor, turn-off var - Eli Mod - D21] (Eterna round: R97, puzzle: Sensor, turn-off variant 1) | 14.6 | – | 15.7 | – | – | –
12 | UACAUGAGGAUCACCCAUGUUUUGUCGUGUAUGGUAUUUAUCUAGGAUAUCAAUUUAGUUACUUAUGAGAAGGAGAAUAUUAAU [JMF's solution 77] (Eterna round: R96, puzzle: Exclusion NG 3) | 33.8 | 22.3 | 38.7 | – | – | –
13 | AGUAUUCGAGGAUAUACGUGCCAAUGAUCCAUGAGACUCCUACAUGAGGAUCACCCAUGUAGAAGGCGAAAACC [Eternabot (L1) Solution 99] (Eterna round: R97, puzzle: Exclusion 2) | 19.1 | – | 15.9 | – | – | –
14 | AUAAUGUGAGGAUAUCACGCCCAAAUAAAUGGGCGAAAUAAUGAGAAGGCACAUGAGGAUCACCCAUGUCCGAA [EX4 A.25] (Eterna round: R97, puzzle: Exclusion 4) | 180 | – | 33.5 | – | – | –
15 | AGCUGUGGCCGAGGAUAUCUAUCUCCAAUAACCGAAAUAUAAUCGGACAUGAGGAUCACCCAUGUAGAGAAGGCGGUCUCAGCA [Eli eng2 - 090] (Eterna round: R96, puzzle: Exclusion NG 2) | – | 15 | – | – | – | –
16 | GAUCCUUUUACGGACGUCUCGAAACAUGAGGAUCACCCAUGUGAGGAUAUCUCCGAGAGAUCGGCAGAGAAGGCACAAUAACAA [MOD Eternabot solution 19 score 84.66] (Eterna round: R96, puzzle: Exclusion NG 3) | 91.4 | 19.7 | 50.3 | – | – | –
17 | UCUUCACAUGAGGAUCACCCAUGUCAGGAUAUGCUCCCGAGUCACCUUAUCAUGGGACGCAGAAGGGACAUUAU [EX1 B.3] (Eterna round: R97, puzzle: Exclusion 1) | 43 | – | 19.8 | – | – | –

Row | Sequence | apparent KD of MS2 coat protein (input ligand: FMN 200 uM) [nM] | apparent KD of MS2 coat protein [1] [nM] | apparent KD of MS2 coat protein (input ligand: none) [nM] | apparent KD of MS2 coat protein [2] [nM] | apparent KD of MS2 coat protein [3] [nM] | apparent KD of MS2 coat protein [4] [nM]
18 | CUCAAACAUGAGGAUCACCCAUGUGAGGAUAUGAUGCGAUCGUCGAAAGACGAUAGCAUCAGAAGGUACAAAUG [Fiskers Ex 1 - 23] (puzzle: Exclusion 1) | – | – | – | 37.7 | 37.9 | 54.2
19 | CUAGUAUAUCAGGAUAUGAUUUUAUAUAUUGGAUCAGAAGGGAUGACAUGAGGAUCACCCAUGUUGAGGAGUGA [JR_Ex6_Sub039] (Eterna round: R97, puzzle: Exclusion 6) | 257 | – | 103 | – | – | –
20 | GGUCUGCGAGGAUAUACAUGAGGAUCACCCAUGUGCGAGAAACUAGUGAGGUCGAUUGGUAGAAGGCGCGGACG [Mat - Exclusion 3 - Mod of JL D83] (puzzle: Exclusion 3) | – | – | – | 74.1 | 113 | 210
21 | ACCUCACAUGAGGAUCACCCAUGUCAGGAUAUCUAAUGUAGUCGCGUUCCCGACGCUAAGAGAAGGGACGUUAA [EX1 #35] (Eterna round: R97, puzzle: Exclusion 1) | 14.6 | – | 16.1 | – | – | –
22 | AACCUACAUGAGGAUCACCCAUGUGAGGAUAUAUUGUUAUGGAUGUUAUUUUGUAGUGGUAGAAGGCGCGUGAU [JR_Exc1_Sub024] (Eterna round: R97, puzzle: Exclusion 1) | 19 | – | 15.9 | – | – | –
23 | UCGUCGUCGUCAGGAUAUAGUCUUAUUGUUAUGCUUUUGUUCGUACAUGAGGAUCACCCAUGUGGCUAGAAGGGACUAAAGUUU [JR_ExcNG2_Sub017] (Eterna round: R96, puzzle: Exclusion NG 2) | 19.3 | 17.2 | 23 | – | – | –
24 | ACAAGCUUUUUGCUCGUCUACAUGAGGAUCACCCAUGUAGUGUGUUAGUGGUGAAGAUAGAUUGAGCGUAGUAGGUA [JR_SV3TOV1_Sub072] (puzzle: Sensor v3, turn-off variant 1) | – | – | – | 102 | 79.5 | 109
25 | CCGGCUGCUGUGAGGAUAUGCCUGCGCGCCCGCGGGCAGAAGGCACAUGAGGAUCACCCAUGUCCUGCGGUCCC [salish99_bmx4_r4_119] (Eterna round: R97, puzzle: Brourd's mod of Exclusion 4) | 45.2 | – | 18.2 | – | – | –
26 | CGAUGUUAUGUCAGGAUAUGCAUUGCGAAAGCGAUGCAGAAGGGACAUGAGGAUCACCCAUGUCCUAACCAUCG [Omei A 6] (puzzle: Brourd's mod of Exclusion 4) | – | – | – | – | 11.6 | –
27 | AUUUAACAUGAGGAUCACCCAUGUGAGGAUAUGUCCAUUUUAAACAAAUAGGAUAUGGACAGAAGGCACACCGG [JR_Exclusion1_Sub007] (puzzle: Exclusion 1) | – | – | – | – | 219 | –
28 | GGAGGUAUUUAGGAUAUGAUGUACGACGCAGGUUCAGAAGGGAGUACAUGAGGAUCACCCAUGUGGCCUCAUCC [Eternabot (L2) Solution 47] (Eterna round: R97, puzzle: Exclusion 6) | 1200 | – | 2010 | – | – | –
29 | GGCAGACAUGAGGAUCACCCAUGUGAGGAUAUGGUGCGAUCGUCGAUAGACGAUAGCACCAGAAGGCACAUGCC [Mat - Exclusion 1 - Eli Mod - D4] (Eterna round: R97, puzzle: Exclusion 1) | 159 | – | 34.5 | – | – | –
30 | AAUUAGUAUGUGAGGAUAUUGAUGUAAUGACGGUUUAAGAAGGCACAUGAGGAUCACCCAUGUAGGUGCUCACG [JR_BMEx4_Sub007] (Eterna round: R97, puzzle: Brourd's mod of Exclusion 4) | 380 | – | 70.4 | – | – | –
31 | AGUAGAUCUACGCUUGCGUGGAUCUGCAUUGCAAGUGUAACAUGAGGAUCACCCAUGUCCUCAUUUGCUCGUCUUAU [JL turnoff v2 99.02] (puzzle: Sensor v3, turn-off variant 2) | – | – | – | 54.4 | 277 | 54.2
32 | GAAAAGGUAGGAUAUACGAAAAAAAAGGGUAGAAAAAAUACACAUGAGGAUCACCCAUGUAGAAGGACCAAAAG [salish99_ex2_r3_073] (Eterna round: R96, puzzle: Exclusion 2) | – | 26.7 | – | – | – | –
33 | ACUGGUGCAGGAUAUACAAUCGUGCUUCGGCACGUAAGGUCACAUGAGGAUCACCCAUGUAGAAGGGCACCAGU [E2/2-D1] (Eterna round: R97, puzzle: Exclusion 2) | 177 | – | 26.2 | – | – | –
34 | GUAUGUGGUAAGGAUAUGCAUAAAACCCGCUCCGCAGAAGGUACCACAUGAGGAUCACCCAUGUGAUACCAAUA [EX6 A.16] (Eterna round: R97, puzzle: Exclusion 6) | 16.1 | – | 14.3 | – | – | –
